Experimental data as given in patent US5731326A, “PDGF antagonists II” (ZymoGenetics, Inc., priority 1996, dated 1998).

How the values were obtained:
[1] = test system: baboon smooth muscle cells; test: Wash-out study of PDGF-BB mitogenic activity on baboon smooth muscle cells; format: cell-based; conditions: T = -24 hrs 0.5% DMSO; T = 0 hrs PDGF-BB (1 ng/ml); mean +/- SD; vehicle only 164 +/- 10
Protocol: NNC92-0270 was analyzed for prolonged inhibitory effect on PDGF-BB mitogenic activity on baboon smooth muscle cells in a wash-out experiment. Baboon SMCs were plated at 20,000 cells per well in a 24-well culture dish and grown for 2 days. The culture media was removed and replaced with Mito Media (Table 5) to allow the cells to become quiescent. The experiment was set up such that cells were treated with NNC92-0270 or vehicle control (0.5% DMSO) for either 24 hours prior to the addition of PDGF-BB, or sequentially with the addition of PDGF-BB. Those cells initially treated with NNC92-0270 or control vehicle for 24 hours, were washed with Mito Media to remove the test compound and then incubated with PDGF-BB (1 ng/ml) for an additional 24 hours. A second set of cells was treated with NNC92-0270 or vehicle control simultaneously with PDGF-BB for 24 hours. The cells were pulse labeled for 4 hours with [^3 H] thymidine (1 μCi/ml final) harvested with trypsin and counted in a Wallac Betaplate counter to determine CPM for [^3 H] thymidine incorporation.
Acetic acid (10 mM) was used as the PDGF-BB vehicle control and 0.5% DMSO was used as the test compound control.

[2] = test system: baboon smooth muscle cells; test: Inhibition of PDGF-BB mitogenic activity on baboon smooth muscle cells ([3H] thymidine incorporation); format: cell-based; conditions: vehicle 74
Protocol: NNC92-0270 was analyzed for the ability to inhibit the mitogenic activity of PDGF on baboon smooth muscle cells. All mitogenesis assays performed on baboon vascular smooth muscle cells (BVSMCs) were done on primary cultures of cells between passages 13 and 20 in culture. The initial cultures were established from outgrowth of aortic tissue explants. Baboon smooth muscle cells were plated at approximately 20,000 cells per well, in DMEM supplemented with 10% fetal calf serum, into 24-well culture dishes. One day prior to use the culture media was removed, and 1 ml of Mito Media (Table 5) was added to each well to allow the cells to become quiescent. At the time of the experiment the cells were stimulated with PDGF-BB. […] 20× stock solutions were made for each of the PDGF concentrations by dilution in 10 mM acetic acid containing 0.25% albumin, and 50 ul PDGF or dilution vehicle alone was added to the culture wells.
To analyze the activity of NNC92-0270 to neutralize PDGF-BB mitogenic activity, 1 ng/ml of PDGF was added to wells along with dilutions of NNC92-0270. The cells were incubated with the test samples for approximately 20 hours at 37 ° C. Fifty microliters of a 20× stock solution of [3H] Thymidine was then added to each well to give a final concentration of 1 μCi/ml. The cells were incubated for 4 hours at 37 ° C., washed with PBS, then harvested with trypsin and counted for [^3 H] thymidine incorporation in a Wallac (Turku, Finland) Betaplate™ liquid scintillation counter.
NNC92-0270 was incubated with 1 ng/ml of PDGF-BB in the presence of 0.5 U/ml of unfractionated heparin. The cells were pulse labeled with [^3 H] thymidine as described above and the level of [^3 H] thymidine determined.

B1: PDGF-BB: platelet derived growth factor BB, mitogenic stimulus used for the standard curve (protein, UniProt P01127 82-190, looked up)
Platelet-derived growth …: SLGSLTIAEPAMIAECKTRTEVFEISRRLIDRTNANFLVWPPCVEVQRCSGCCNNRNVQCRPTQVQLRPVQVRKIEIVRKKPIFKKATVTLEDHLACKCETVAAARPVT
modifications: homodimer
notes: platelet derived growth factor BB, mitogenic stimulus used for the standard curve
- [3H] Thymidine Incorporation (cpm) [1]: 6370 +/- 1303 cpm
- 3H Thymidine (CPM Incorporated), PDGF-BB standard curve ([2]; PDGF-BB 0.062 ng/ml): 120 CPM
- 3H Thymidine (CPM Incorporated), PDGF-BB standard curve ([2]; PDGF-BB 0.125 ng/ml): 226 CPM
- 3H Thymidine (CPM Incorporated), PDGF-BB standard curve ([2]; PDGF-BB 0.25 ng/ml): 392 CPM
- 3H Thymidine (CPM Incorporated), PDGF-BB standard curve ([2]; PDGF-BB 0.5 ng/ml): 959 CPM
- 3H Thymidine (CPM Incorporated), PDGF-BB standard curve ([2]; PDGF-BB 1 ng/ml): 1701 CPM
